# Patent publication US20220195455
# T1: MARCKSL1 octapeptide GSQSSKAP
# T1 chain: GSQSSKAP
# T2: LYN octapeptide GCIKSKGK
# T2 chain: GCIKSKGK
# T3: NAA40 octapeptide GRKSSKAK
# T3 chain: GRKSSKAK
# T4: MARCKS octapeptide GAQFSKTA
# T4 chain: GAQFSKTA
# T5: PSMC1 octapeptide GQSQSGGH
# T5 chain: GQSQSGGH
# T6: ARF6 octapeptide GKVLSKIF
# T6 chain: GKVLSKIF
# T7: ARL2 octapeptide GLLTILKK
# T7 chain: GLLTILKK
# T8: NOL3 octapeptide GNAQERPS
# T8 chain: GNAQERPS
# T9: SCYL3 octapeptide GSENSALK
# T9 chain: GSENSALK
# T10: LANCL2 octapeptide GETMSKRL
# T10 chain: GETMSKRL
# T11: REP15 octapeptide GQKASQQL
# T11 chain: GQKASQQL
# T12: GNAZ octapeptide GCRQSSEE
# T12 chain: GCRQSSEE
# T13: NDUFB7 octapeptide GAHLVRRY
# T13 chain: GAHLVRRY
# T14: DEGS1 octapeptide GSRVSRED
# T14 chain: GSRVSRED
# T15: FYN octapeptide GCVQCKDK
# T15 chain: GCVQCKDK
# T16: FRS2 octapeptide GSCCSCPD
# T16 chain: GSCCSCPD
# T17: NDUFAF4 octapeptide GALVIRGI
# T17 chain: GALVIRGI
# T18: RNF11 octapeptide GNCLKSPT
# T18 chain: GNCLKSPT
# T19: ZNRF2 octapeptide GAKQSGPA
# T19 chain: GAKQSGPA
# T20: RP2 octapeptide GCFFSKRR
# T20 chain: GCFFSKRR
# T21: DDX46 octapeptide GRESRHYR
# T21 chain: GRESRHYR
# T22: ARL6 octapeptide GLLDRLSV
# T22 chain: GLLDRLSV
# T23: Src8(G2A) mutant octapeptide Ala-Ser-Asn-Lys-Ser-Lys-Pro-Lys
# T23 chain: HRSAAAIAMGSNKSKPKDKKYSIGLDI
# T24: YES1 octapeptide GCIKSKEN
# T24 chain: GCIKSKEN
# T25: LNP octapeptide GGLFSRWR
# T25 chain: GGLFSRWR
# Tests used:
# [1] = target: T1, MARCKSL1 octapeptide GSQSSKAP
# LYN octapeptide GCIKSKGK = target: T2, LYN octapeptide GCIKSKGK
# [2] = target: T3, NAA40 octapeptide GRKSSKAK
# [3] = target: T4, MARCKS octapeptide GAQFSKTA
# [4] = target: T5, PSMC1 octapeptide GQSQSGGH
# [5] = target: T6, ARF6 octapeptide GKVLSKIF
# [6] = target: T7, ARL2 octapeptide GLLTILKK
# [7] = target: T8, NOL3 octapeptide GNAQERPS
# [8] = target: T9, SCYL3 octapeptide GSENSALK
# [9] = target: T10, LANCL2 octapeptide GETMSKRL
# [10] = target: T11, REP15 octapeptide GQKASQQL
# [11] = target: T12, GNAZ octapeptide GCRQSSEE
# [12] = target: T13, NDUFB7 octapeptide GAHLVRRY
# [13] = target: T14, DEGS1 octapeptide GSRVSRED
# FYN octapeptide GCVQCKDK = target: T15, FYN octapeptide GCVQCKDK
# [14] = target: T16, FRS2 octapeptide GSCCSCPD
# [15] = target: T17, NDUFAF4 octapeptide GALVIRGI
# [16] = target: T18, RNF11 octapeptide GNCLKSPT
# [17] = target: T19, ZNRF2 octapeptide GAKQSGPA
# RP2 octapeptide GCFFSKRR = target: T20, RP2 octapeptide GCFFSKRR
# [18] = target: T21, DDX46 octapeptide GRESRHYR
# [19] = target: T22, ARL6 octapeptide GLLDRLSV
# [20] = target: T23, Src8(G2A) mutant octapeptide …
# [21] = target: T24, YES1 octapeptide GCIKSKEN
# LNP octapeptide GGLFSRWR = target: T25, LNP octapeptide GGLFSRWR
protein,measurement,setting,value
"N-myristoyltransferase 1, full length (protein) MADESETAVKPPAPPLPQMMEGNGNGHEHCSDCENEEDNSYNRGGLSPANDTGAKKKKKKQKKKKEKGSETDSAQDQPVKMNSLPAERIQEIQKAIELFSVGQGPAKTMEEASKRSYQFWDTQPVPKLGEVVNTHGPVEPDKDNIRQEPYTLPQGFTWDALDLGDRGVLKELYTLLNENYVEDDDNMFRFDYSPEFLLWALRPPGWLPQWHCGVRVVSSRKLVGFISAIPANIHIYDTEKKMVEINFLCVHKKLRSKRVAPVLIREITRRVHLEGIFQAVYTAGVVLPKPVGTCRYWHRSLNPRKLIEVKFSHLSRNMTMQRTMKLYRLPETPKTAGLRPMETKDIPVVHQLLTRYLKQFHLTPVMSQEEVEHWFYPQENIIDTFVVENANGEVTDFLSFYTLPSTIMNHPTHKSLKAAYSFYNVHTQTPLLDLMSDALVLAKMKGFDVFNALDLMENKTFLEKLKFGIGDGNLQYYLYNWKCPSMGAEKVGLVLQ",Km,[1],11.7 µM
same,Vmax,[1],6.6 µM/min
same,Km,LYN octapeptide GCIKSKGK,22.5 µM
same,Vmax,LYN octapeptide GCIKSKGK,64.7 µM/min
same,Km,[2],1.2 µM
same,Vmax,[2],1.8 µM/min
same,Km,[3],38.4 µM
same,Vmax,[3],6.4 µM/min
same,Km,[4],40 µM
same,Vmax,[4],9.6 µM/min
same,Km,[5],4.4 µM
same,Vmax,[5],13.6 µM/min
same,Km,[6],0.4 µM
same,Vmax,[6],1.2 µM/min
same,Km,[7],1.4 µM
same,Vmax,[7],2 µM/min
same,Km,[8],0.8 µM
same,Vmax,[8],1.7 µM/min
same,Km,[9],13 µM
same,Vmax,[9],5.3 µM/min
same,Km,[10],15.7 µM
same,Vmax,[10],3.4 µM/min
same,Km,[11],15.7 µM
same,Vmax,[11],64.4 µM/min
same,Km,[12],16.4 µM
same,Vmax,[12],2.8 µM/min
same,Km,[13],79.2 µM
same,Vmax,[13],12.9 µM/min
same,Km,FYN octapeptide GCVQCKDK,5.2 µM
same,Vmax,FYN octapeptide GCVQCKDK,54.9 µM/min
same,Km,[14],28.2 µM
same,Vmax,[14],54.7 µM/min
same,Km,[15],0.5 µM
same,Vmax,[15],1.2 µM/min
same,Km,[16],16.7 µM
same,Vmax,[16],61.1 µM/min
same,Km,[17],2 µM
same,Vmax,[17],1.6 µM/min
same,Km,RP2 octapeptide GCFFSKRR,13.6 µM
same,Vmax,RP2 octapeptide GCFFSKRR,60.8 µM/min
same,Km,[18],< 0.1 µM
same,Vmax,[18],2 µM/min
same,Km,[19],< 0.1 µM
same,Vmax,[19],1.8 µM/min
same,Km,[20],< 0.1 µM
same,Vmax,[20],1 µM/min
same,Km,[21],14.4 µM
same,Vmax,[21],61 µM/min
same,Km,LNP octapeptide GGLFSRWR,10.3 µM
same,Vmax,LNP octapeptide GGLFSRWR,21.9 µM/min
